Data: patent publication US20250101394, “NOVEL CRISPR-CAS12I SYSTEMS AND USES THEREOF” (Huidagene Therapeutics (Singapore) PTE. LTD., published 2025)

Columns and labels:
Conditions in all cases: tags: N-term SV40 NLS, C-term NP NLS
[1] = target: T1, Cas12Max (xCas12i-N243R, v1.1) (synthetic construct); assay: cell_activity; 5' TTN PAM; EGFP reporter HEK293T
T1 chain: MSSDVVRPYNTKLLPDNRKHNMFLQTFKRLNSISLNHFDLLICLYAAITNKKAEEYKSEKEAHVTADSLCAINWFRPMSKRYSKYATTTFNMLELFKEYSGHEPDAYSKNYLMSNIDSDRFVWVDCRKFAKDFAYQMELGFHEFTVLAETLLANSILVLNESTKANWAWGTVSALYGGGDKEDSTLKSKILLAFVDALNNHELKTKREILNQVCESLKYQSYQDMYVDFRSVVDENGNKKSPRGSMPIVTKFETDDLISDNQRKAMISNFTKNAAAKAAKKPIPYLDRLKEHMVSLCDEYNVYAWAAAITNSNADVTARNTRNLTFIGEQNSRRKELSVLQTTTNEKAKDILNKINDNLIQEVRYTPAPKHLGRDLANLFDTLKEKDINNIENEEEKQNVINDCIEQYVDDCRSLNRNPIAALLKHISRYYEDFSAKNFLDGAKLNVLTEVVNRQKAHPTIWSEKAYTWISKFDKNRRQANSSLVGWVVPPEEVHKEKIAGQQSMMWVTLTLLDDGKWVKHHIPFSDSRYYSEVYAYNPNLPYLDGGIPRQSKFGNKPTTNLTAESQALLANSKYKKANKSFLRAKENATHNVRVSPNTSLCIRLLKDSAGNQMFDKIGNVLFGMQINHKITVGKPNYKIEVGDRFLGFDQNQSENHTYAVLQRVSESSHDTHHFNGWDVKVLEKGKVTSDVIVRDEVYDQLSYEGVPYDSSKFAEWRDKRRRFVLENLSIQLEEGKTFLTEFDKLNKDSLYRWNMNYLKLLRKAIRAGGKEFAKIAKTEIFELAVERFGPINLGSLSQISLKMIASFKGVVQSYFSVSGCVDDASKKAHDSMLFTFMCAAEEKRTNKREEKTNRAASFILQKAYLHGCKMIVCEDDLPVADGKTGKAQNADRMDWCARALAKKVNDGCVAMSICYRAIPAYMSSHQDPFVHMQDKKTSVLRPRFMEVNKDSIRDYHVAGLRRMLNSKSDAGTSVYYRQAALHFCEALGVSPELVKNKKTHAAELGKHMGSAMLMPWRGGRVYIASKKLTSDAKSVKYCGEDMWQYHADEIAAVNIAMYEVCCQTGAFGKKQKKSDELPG

[2] = target: T2, xCas12i-A165R (synthetic construct, A165R); assay: cell_activity; 5' TTN PAM; EGFP reporter HEK293T
T2 chain: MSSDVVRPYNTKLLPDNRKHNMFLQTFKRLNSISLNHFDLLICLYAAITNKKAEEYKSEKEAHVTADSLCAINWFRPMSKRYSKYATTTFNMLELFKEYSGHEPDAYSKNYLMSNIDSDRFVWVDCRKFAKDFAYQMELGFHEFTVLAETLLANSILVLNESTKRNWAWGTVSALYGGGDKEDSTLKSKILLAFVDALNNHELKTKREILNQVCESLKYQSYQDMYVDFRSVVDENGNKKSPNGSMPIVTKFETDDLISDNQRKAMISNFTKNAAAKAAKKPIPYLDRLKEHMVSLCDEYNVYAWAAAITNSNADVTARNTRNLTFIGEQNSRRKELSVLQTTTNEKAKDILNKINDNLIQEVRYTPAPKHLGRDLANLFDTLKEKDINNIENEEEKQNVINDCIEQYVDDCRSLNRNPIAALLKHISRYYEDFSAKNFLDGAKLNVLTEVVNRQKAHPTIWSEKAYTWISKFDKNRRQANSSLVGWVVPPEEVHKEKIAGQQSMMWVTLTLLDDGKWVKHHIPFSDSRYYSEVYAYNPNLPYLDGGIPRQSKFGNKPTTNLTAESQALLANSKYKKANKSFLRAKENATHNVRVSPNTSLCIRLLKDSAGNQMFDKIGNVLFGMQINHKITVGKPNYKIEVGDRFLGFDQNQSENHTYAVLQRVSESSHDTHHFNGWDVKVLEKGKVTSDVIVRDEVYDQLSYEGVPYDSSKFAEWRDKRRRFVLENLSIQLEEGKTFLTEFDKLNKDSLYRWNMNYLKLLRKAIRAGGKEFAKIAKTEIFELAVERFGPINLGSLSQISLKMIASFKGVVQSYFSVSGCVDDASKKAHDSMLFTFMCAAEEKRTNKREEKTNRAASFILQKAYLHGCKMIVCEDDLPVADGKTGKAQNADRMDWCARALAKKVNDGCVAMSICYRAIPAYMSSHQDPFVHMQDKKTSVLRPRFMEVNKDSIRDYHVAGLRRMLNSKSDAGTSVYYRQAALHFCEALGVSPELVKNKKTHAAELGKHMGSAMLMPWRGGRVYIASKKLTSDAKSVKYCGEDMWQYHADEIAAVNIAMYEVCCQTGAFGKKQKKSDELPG

[3] = target: T3, xCas12i (SiCas12i, Cas12i12) (unidentified); assay: cell_activity; 5' TTN PAM; EGFP reporter HEK293T; DR-T1
T3 chain: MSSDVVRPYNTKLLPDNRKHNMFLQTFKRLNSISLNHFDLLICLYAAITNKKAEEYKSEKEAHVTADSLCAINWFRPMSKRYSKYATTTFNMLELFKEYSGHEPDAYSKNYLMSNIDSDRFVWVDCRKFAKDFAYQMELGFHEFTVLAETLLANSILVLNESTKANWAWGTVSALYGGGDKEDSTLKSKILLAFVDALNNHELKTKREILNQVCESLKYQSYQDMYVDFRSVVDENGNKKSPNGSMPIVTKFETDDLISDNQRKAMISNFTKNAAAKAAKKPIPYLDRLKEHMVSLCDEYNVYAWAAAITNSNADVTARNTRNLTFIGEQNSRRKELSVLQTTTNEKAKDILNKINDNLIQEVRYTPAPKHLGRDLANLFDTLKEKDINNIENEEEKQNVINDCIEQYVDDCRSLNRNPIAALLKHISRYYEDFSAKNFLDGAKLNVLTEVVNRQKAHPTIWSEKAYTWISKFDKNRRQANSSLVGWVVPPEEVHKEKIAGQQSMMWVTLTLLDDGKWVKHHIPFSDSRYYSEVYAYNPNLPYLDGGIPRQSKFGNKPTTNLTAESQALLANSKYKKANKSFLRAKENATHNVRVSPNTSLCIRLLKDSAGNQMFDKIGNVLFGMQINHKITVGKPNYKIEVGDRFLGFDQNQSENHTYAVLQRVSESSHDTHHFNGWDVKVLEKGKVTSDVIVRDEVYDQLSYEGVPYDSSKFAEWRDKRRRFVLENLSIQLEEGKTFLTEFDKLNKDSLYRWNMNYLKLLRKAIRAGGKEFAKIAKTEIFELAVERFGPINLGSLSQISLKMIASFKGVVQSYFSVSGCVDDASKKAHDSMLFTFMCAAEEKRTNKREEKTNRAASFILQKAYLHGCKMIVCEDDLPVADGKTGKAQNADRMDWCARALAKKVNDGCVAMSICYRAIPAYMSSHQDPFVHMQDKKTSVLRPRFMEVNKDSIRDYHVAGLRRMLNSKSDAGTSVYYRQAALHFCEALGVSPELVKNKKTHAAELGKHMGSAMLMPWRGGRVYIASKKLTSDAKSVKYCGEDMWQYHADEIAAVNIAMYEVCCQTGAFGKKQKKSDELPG
Text: To vary xCas12i's dsDNA cleavage activity and expand its scope of PAM site recognition, the applicant engineered xCas12i protein via mutagenesis and screened for mutants with higher dsDNA cleavage activity and broader PAM using a dual plasmid fluorescent reporter system similar to the dual plasmid fluorescent reporter system in Example 1, except that the EGxxxxFP-targeting guide RNA (SEQ ID NO: 51; “crON”) coding sequence operably linked to U6 promoter was not located on the expression plasmid together with the xCas12i (or its mutant) coding sequence (SEQ ID NO: 31) but located on the reporter plasmid together with the BFP-P2A-EGxxxxFP coding sequence (SEQ ID NO: 41) (referring to “On-Target Reporter” in FIG. 1B). […] The applicant then individually transfected the expression plasmid and the reporter plasmid into HEK293T cells and analyzed them by FACS (FIG. 1B). […]

B1: crEGFP guide with DR-T1 ; EGxxxxFP insertion target (ssRNA ; dsDNA)
RNA: AUGACUCAGAAAUGUGUCCCCAGUUGACACCCAUUACAGUAGGAGCAUAC
DNA 1: GGATCCGTGTCTTTCCCATTACAGTAGGAGCATACGGGAGACAAGCTTTG
DNA 2: CAAAGCTTGTCTCCCGTATGCTCCTACTGTAATGGGAAAGACACGGATCC
binding signal [1]: 3.61 fold of WT
binding signal [2]: 3.15 fold of WT
binding signal [3]: 1 fold of WT
